Drawing on US20100272753A1, this text covers dilution positive in immunofluorescence (reciprocal dilution) for one substance.

The assay has as its target native circumsporozoite protein (CSP) on intact P. falciparum sporozoites (Plasmodium falciparum) (UniProt Q7K740). Description: indirect immunofluorescence on intact P. falciparum sporozoites.
Sequence of UniProt Q7K740 (Q7K740 19-374): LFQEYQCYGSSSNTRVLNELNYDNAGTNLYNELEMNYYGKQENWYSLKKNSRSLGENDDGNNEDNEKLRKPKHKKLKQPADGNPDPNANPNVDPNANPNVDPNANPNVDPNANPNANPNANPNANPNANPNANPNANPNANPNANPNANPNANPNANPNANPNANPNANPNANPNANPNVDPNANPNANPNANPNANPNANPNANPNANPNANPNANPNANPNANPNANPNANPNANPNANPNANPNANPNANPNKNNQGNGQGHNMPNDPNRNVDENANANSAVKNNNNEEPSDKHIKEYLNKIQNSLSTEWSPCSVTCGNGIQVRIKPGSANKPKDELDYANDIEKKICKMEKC

In turn, “anti-P. falciparum NANP monoclonal antibody 2A10” came in with a dilution positive in immunofluorescence (reciprocal dilution) of 16000.
